This note sets out measurements from patent US20250269003A1, “NANO-ENHANCED VACCINE” (University of Virginia Patent Foundation, priority 2022, published 2025).

Data set [1] can be described thus: Peptide encapsulation within nanoliposomes (mass spectrometry). The note with it: for Original mass encapsulation: neutral formulation and 1X PBS; for Optimized mass encapsulation: new liposome formulation (charge and buffer B1-B4) keeping optimal pH, full vaccine, n = 3 separate experiments in triplicate; for Encap. Efficiency: optimized formulation, based upon initial 500 μg/ml peptide concentration; for Encap. improvement: optimized versus original mass encapsulation. The class given is physicochemical. The source says: (§1) Encapsulation of Melanoma Peptides within Nanoliposomes. The six melanoma peptides that induce melanoma-reactive CD4^+ T cells in patients as well as their protein epitope and ideal pH range for solubility are provided in Table 1. A neutral formulation was initially chosen to encapsulate all peptides and then, through an iterative process, modified formulations to optimize encapsulation efficiencies for several of the peptides. Through this process, three different nanoliposome formulations (neutral, cationic, and anionic) suitable for distinct peptides were identified. However, all of the presently disclosed formulations contained the same base lipid components, including 1,2-distearoyl-sn-glycero-3-phosphocholine (DSPC); 1,2-Dioleoyl-sn-glycero-3-phosphoethanolamine (DOPE); 1,2-distearoyl-sn-glycero-3-phosphoethanolamine-N-[methoxy(polyethylene glycol)-2000] (ammonium salt) (PEG2000PE); KDO2; cholesterol; and a fluorophore (either rhodamine or 1,1′-Dioctadecyl-3,3,3′,3′-Tetramethylindodicarbocyanine, 4-Chlorobenzenesulfonate Salt (DiD)). Each formulation contained DSPC and DOPE at a 2.14:1 molar ratio to form a stable, spherical nanoparticle. In addition, cholesterol at a 30 molar percent was incorporated to increase rigidity and to reduce leakiness. PEG(2000)-PE at 2.5 molar percent was incorporated for biological stability, KDO2 was added to all formulations at 0.1 molar percent, and a fluorescent probe (rhodamine or DiD) was added at 0.2 molar percent for subsequent biodistribution imaging studies. Keeping the molar ratios of these key components constant, dihexadecyl phosphate (DHP) was incorporated at 10 molar percent for the anionic formulation and positively charged lipid 1,2-dioleoyl-3-trimethylammonium-propane (chloride salt) (DOTAP) at 7 molar percent for the cationic formulation. The lipid mixtures were then dried down in a nitrogen blower for roughly 2 hours until all of the chloroform was evaporated. Then, the peptide solutions, (or 1×PBS for the “ghost” formulation), was added to the dried down lipids, the tubes were then vortexed and placed in a heat shaker at 60° C. for 2 hours, followed by sonication in a 60° C. sonic bath for roughly five minutes. After sonication, the liposomes were extruded through a 100-nanometer pore membrane eleven times to create uniformly sized liposomes. The extruded liposomes were subsequently run through a Sepharose gel bead column to separate the liposomal drugs from the free drug. The solution was analyzed using Dynamic Light Scattering (DLS; polydispersity and average hydrodynamic diameter of particles in solution), and mass spectrometry.
(§2) To further ensure optimal encapsulation efficiency of the MHPs, distinct dissolution buffers tailored to each peptide's optimal pH range and previously optimized for in vivo injection of the free peptides into patients enrolled in earlier clinical studies were utilized. Specifically, for the neutral peptide formulations, 1.33 mg/ml sodium bicarbonate (NaHCO3) in a 1:2 solution of lactated Ringers solution (LR) and water respectively (B1); for the cationic formulation, 5 mg/ml NaHCO3 in water (B2); for the WNR anionic formulation, 1 mg/ml NaHCO3 in water (B3); and for the TSYVKVLHHMVKISG (TSY; SEQ ID NO: 1) anionic formulation, 1:9 ratio of 2-(N-morpholino) […] (MES) buffer and water (B4).
Each of the six Melanoma Helper Peptides (6MHP) were initially incorporated in a neutral liposome formulation containing: (DSPC); (DOPE); (PEG2000PE); KDO2; cholesterol; and a fluorophore in ratios of 4.60:2.14:0.25:0.01:3.00:0.02 respectively (see Table 2). After quantifying initial encapsulation masses, an iterative approach was utilized to improve encapsulation via modifying the charge and lipid ratios of the liposomal formulation as well as the buffer for the peptide. The proportional improvements in encapsulation as well as the encapsulation efficiencies are depicted in Table 3.

Data set [2] is described as follows: Ideal pH range for peptide stability and dissolution. The note with it: pH range required for stability and dissolution of the peptide. The class given is physicochemical.
Text: as §1, §2

The subject of data set [3] is SIN lymphocytes. In words: Lymphocyte viability, live-dead marker and flow cytometry. Type of data set: cell-based, human. The note with it: patient SIN samples; free TSY compared with nanoliposomal KDO2/TSY. The source says:
(§3) Ex Vivo Lymphocyte Stimulation using Immunogenic TSY encapsulated nanoliposomes. Freshly obtained (cryopreserved) peripheral blood mononuclear cells (PBMC) and lymphocytes from the sentinel immunized nodes (SIN) of two patient donors (under IRB protocols, clinical trial Mel41 (NCT00089219; IRB #10464; Slingluff et al., 2008b) were utilized to assess CD4^+ T cell proliferation after treatment with the anionic TSY (MAGE-3281-295 peptide; Table 1) MIP-KDO2 nanoliposome. Firstly, a cell viability study was performed using a live-dead marker and flow cytometry to ensure that cell viability was not impacted by the presence of either the peptides or the liposomes. In this study, SIN lymphocytes from the two patient donors (SIN1 and SIN2) were treated with a variety of free peptides and liposome combinations. […] Cells were acquired on a FACSCANTO™ II flow cytometer (BD Biosciences) maintained by the Carter Immunology Center at the University of Virginia and the data analyzed using FlowJo software (version 10; BD Biosciences).
(§4) Using blood samples from melanoma patients who had previously been vaccinated with a 6MHP vaccine on the Mel41 trial and had developed a robust CD4^+ T cell immune response to the TSY antigen (Slingluff et al., 2008b), lymphocyte viability and CD4^+ T cell proliferation to the TSY nano-formulations ex vivo were analyzed. […]
On the technique in general: In flow cytometry, cells or beads pass a laser one at a time.

For data set [4], the system named is CD4^+ T cells from sentinel immunized nodes (SIN1, SIN2). Kind of data set: CFSE dye-dilution CD4+ T cell proliferation assay, sentinel immunized node cells. Type of data set: cell-based, human. The note with it: SIN1 and SIN2 donor cells, 2 μg/mL peptide, 5 days.
Text: as §3, §4

As to “AQNILLSNAPLGPQFP (listed as Homo sapiens) [melanoma helper peptide, amino acids 56-70 of human tyrosinase]”, in data set [1], the Original mass encapsulation was found to be 0.02 ± 0.005 µg/mL, the Optimized mass encapsulation stood at 6.25 ± 1.13 µg/mL, the “Encap. Efficiency” value was determined as 1.25% and the Encap. improvement is recorded as 312X. Besides, in data set [2], the “Ideal pH range” value is reported as 8.5-9.0.

In the case of “FLLHHAFVDSIFEQWLQRHRP (listed as Homo sapiens) [melanoma helper peptide, amino acids 386-406 of human tyrosinase]”, in data set [1], the Original mass encapsulation amounted to 28.15 ± 2.05 µg/mL, the Optimized mass encapsulation turned out to be 58.61 ± 4.96 µg/mL, the “Encap. Efficiency” value is recorded as 11.72% and the Encap. improvement was 2.08X. The “Ideal pH range” value in data set [2] is given as 6.0-8.0.

Take “LLKYRAREPVTKAE (listed as Homo sapiens) [melanoma helper peptide, amino acids 121-134 of human MAGE-1,2,3,6]”: in data set [1], the Original mass encapsulation amounted to 34.56 ± 0.69 µg/mL, the Optimized mass encapsulation was 57.26 ± 14.39 µg/mL, the “Encap. Efficiency” value came to 11.45% and the Encap. improvement is reported as 1.66X. Besides, the “Ideal pH range” value in data set [2] is on record as 6.0-8.0.

For “RNGYRALMDKSLHVGTQCALTRR (listed as Homo sapiens) [melanoma helper peptide, amino acids 51-73 of human Melan-A/MART-1]”, in data set [1], the Original mass encapsulation was found to be 22.37 ± 0.30 µg/mL, the Optimized mass encapsulation came out at 19.18 ± 6.36 µg/mL, the “Encap. Efficiency” value stood at 3.29% and the Encap. improvement came to 0.85X. The “Ideal pH range” value in data set [2] is 6.0-8.0.

Take “TSYVKVLHHMVKISG (listed as Homo sapiens) [melanoma helper peptide, amino acids 281-295 of human MAGE-3]”: the cell viability entry in data set [3] was “no discernable differences in cell viability”. In data set [1], the Original mass encapsulation was 0.17 ± 0.001 µg/mL, the Optimized mass encapsulation was 141.35 ± 2.18 µg/mL, the “Encap. Efficiency” value is given as 28.27% and the Encap. improvement was 831X. In addition, the “CD4^+ T cell proliferation (CFSE dilution)” value in data set [4] was “expected CD4^+ T cell proliferation response was observed”. The “Ideal pH range” value in data set [2] was 5.0-5.5.

On to WNRQLYPEWTEAQRLD, for which, in data set [1], the Original mass encapsulation was 4.81 ± 0.09 µg/mL, the Optimized mass encapsulation turned out to be 7.64 ± 0.99 µg/mL, the “Encap. Efficiency” value amounted to 1.53% and the Encap. improvement was determined as 1.59X. In addition, in data set [2], the “Ideal pH range” value was 7.0-8.0.
